Measured values from patent US20220195071A1 (TORQUE THERAPEUTICS, published 2022).

Molecular target: T1, mouse CD8 (mouse, UniProt P01731 28-247; P10300 22-213)
T1 construct: whole, on cells
Assay: flow cytometry of blood 1 hr after i.v. injection (2 µg/mouse); kappa+ IL-15+ cells

T1 sequence (P01731 28-247, chain 1 of 2): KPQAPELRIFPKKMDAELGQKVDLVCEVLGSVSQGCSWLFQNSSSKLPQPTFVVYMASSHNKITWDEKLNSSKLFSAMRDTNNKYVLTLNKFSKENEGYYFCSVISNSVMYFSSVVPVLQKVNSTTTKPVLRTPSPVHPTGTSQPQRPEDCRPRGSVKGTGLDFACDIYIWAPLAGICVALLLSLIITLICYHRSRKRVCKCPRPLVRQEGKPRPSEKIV
T1 sequence (P10300 22-213, chain 2 of 2): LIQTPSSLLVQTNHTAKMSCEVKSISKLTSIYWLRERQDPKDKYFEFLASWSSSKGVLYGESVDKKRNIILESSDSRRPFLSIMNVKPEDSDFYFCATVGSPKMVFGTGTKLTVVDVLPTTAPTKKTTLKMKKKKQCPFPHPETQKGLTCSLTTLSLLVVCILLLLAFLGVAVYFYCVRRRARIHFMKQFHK

B1: chY169Fab-M1scFv-IL15/sushi (bispecific antibody)
chain 1: EVKLQESGGGLVQPGRSLKLSCAASGFNFNDYWMGWVRQAPGKGLEWIGEINKDSSTINYTPSLKDKFTISRDNAQNTLYLQMSKLGSEDTAIYYCARARGMMVLIIPHYFDYWGQGVMVTVSSASTKGPSVFPLAPSSKSTSGGTAALGCLVKDYFPEPVTVSWNSGALTSGVHTFPAVLQSSGLYSLSSVVTVPSSSLGTQTYICNVNHKPSNTKVDKKVEPKSCGGGGSGGGGSGGGGSQVNLLQSGAALVKPGASVKLSCKASGYTFTDYYIHWVKQSHGKSLEWVAYINPDRDYTNYNEKFKSKATLTVDKSTNTAYMELSRLTSEDSATFYCTRRLYDGAYYYSWFAYWGQGTLVTVSSGGGGSGGGGSGGGGSGGGGSDIQMTQSPHSLSASLGETVSIECLASEGISNYLAWYQQKPGKSPQLLIYYGSRLQDGVPSRFSGSGSGTQYSLRITNMQPEDEGVYYCQQGYKYPYTFGAGTKLELK
chain 2: not shown
chain 3: ITCPPPMSVEHADIWVKSYSLYSRERYICNSGFKRKAGTSSLTECVLNKATNVAHWTTPSLKCIR
  fold higher concentration of circulating tethered-fusion positive cells against vehicle control and chM1Fab-IL15/sushi: > 10 fold
